Laboratory results published in patent publication US20250332297A1, “DLL3-SPECIFIC BINDING CONSTRUCTS AND THEIR USE IN RADIOTHERAPY” (MOLECULAR PARTNERS AG, priority 2024, published 2025).

B1: MAM279: Two domain (2D) ankyrin repeat protein: serum albumin-specific domain (SEQ ID NO: 7), PT linker, DLL3-specific domain of MAM093 (protein)
chain: DLGKKLLEAARAGQDDEVRELLKAGADVNAKDYFSHTPLHLAARNGHLKIVEVLLKAGADVNAKDFAGKTPLHLAADAGHLEIVEVLLKAGADVNAQDIFGKTPADIAADAGHEDIAEVLQKAAGSPTPTPTTPTPTPTTPTPTPTGSDLGKKLLAAAAQGQDDEVRELLKAGANVNAKDLFGYTPLHLAAWRGHLEIVEVLLKAGADVNAKDAAGETPLHLAAWFGHLEIVEVLLKAGADVNAQDLQGKTPADLAAKEGHEDIAEVLQKAA
modifications: Ankyrin repeat protein (MAM279)
B2: Rova: Rova antibody, DLL3-binding benchmark antibody used as positive control and comparison (antibody, chains of the INN, looked up, V domains shown)
VH: QVQLVQSGAEVKKPGASVKVSCKASGYTFTNYGMNWVRQAPGQGLEWMGWINTYTGEPTYADDFKGRVTMTTDTSTSTAYMELRSLRSDDTAVYYCARIGDSSPSDYWGQGTLVTVSS
VL: EIVMTQSPATLSVSPGERATLSCKASQSVSNDVVWYQQKPGQAPRLLIYYASNRYTGIPARFSGSGSGTEFTLTISSLQSEDFAVYYCQQDYTSPWTFGQGTKLEIK
B3: MAM279-DOTAM: GS-MAM279-tag (SEQ ID NO: 15) conjugated to the chelator DOTAM via C-terminal tag and maleimide connector, no radionuclide (conjugate)
chain: GSDLGKKLLEAARAGQDDEVRELLKAGADVNAKDYFSHTPLHLAARNGHLKIVEVLLKAGADVNAKDFAGKTPLHLAADAGHLEIVEVLLKAGADVNAQDIFGKTPADIAADAGHEDIAEVLQKAAGSPTPTPTTPTPTPTTPTPTPTGSDLGKKLLAAAAQGQDDEVRELLKAGANVNAKDLFGYTPLHLAAWRGHLEIVEVLLKAGADVNAKDAAGETPLHLAAWFGHLEIVEVLLKAGADVNAQDLQGKTPADLAAKEGHEDIAEVLQKAAGSGSC
modifications: DOTAM chelator via maleimide on C-terminal tag; Ankyrin repeat protein with tag (GS-MAM279-tag)

Experiments:
Human DLL3-ECD = molecular target: T1, Human DLL3-ECD (Homo sapiens, UniProt Q9NYJ7); assay: SPR binding to human DLL3-ECD (Example 11); settings: immobilized biotinylated target, 1:1 Langmuir, Tables 14, 15
T1 construct: human DLL3 protein (Q9NYJ7, Gene ID: 10683, residues 27 to 466) linked via an Avi-tag; 3C protease recognition site (C); Fc knob into hole (C); purchased Evitria; host or cells: CHO cells
T1 sequence (Q9NYJ7 27-466): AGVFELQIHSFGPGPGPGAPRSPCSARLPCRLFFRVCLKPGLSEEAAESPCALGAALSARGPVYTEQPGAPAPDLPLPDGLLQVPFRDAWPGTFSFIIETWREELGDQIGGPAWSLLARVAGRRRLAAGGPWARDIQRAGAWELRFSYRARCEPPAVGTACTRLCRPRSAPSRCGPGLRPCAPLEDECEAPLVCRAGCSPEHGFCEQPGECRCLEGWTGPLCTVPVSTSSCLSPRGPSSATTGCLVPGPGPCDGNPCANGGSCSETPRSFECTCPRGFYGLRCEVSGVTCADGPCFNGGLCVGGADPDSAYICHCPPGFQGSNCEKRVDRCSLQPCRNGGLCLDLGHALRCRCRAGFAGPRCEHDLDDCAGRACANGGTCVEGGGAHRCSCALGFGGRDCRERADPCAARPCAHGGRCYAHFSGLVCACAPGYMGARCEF
Source text: Two target formats were chosen: i) the first target protein consisted of the extracellular domain of human DLL3 protein (Q9NYJ7, Gene ID: 10683, residues 27 to 466) linked via an Avi-tag (for site-directed biotinylation), followed by a 3C protease recognition site, to a Fc knob into hole (hDLL3-Avi-Fckih); ii) the second target protein consisted of a very similar design including more residues of the extracellular domain of DLL3 (Q9NYJ7, Gene ID: 10683, res 27-470), directly linked to the Fc knob into hole domain followed by an Avi-tag (hDLL3-Fckih-Avi).
hDLL3-Avi-Fckih was expressed in CHO cells (Chinese hamster ovary cells) by Evitria and purified by a protein A derivative-based affinity chromatography followed by preparative size-exclusion chromatography (SEC). The material was up-concentrated in PBS pH 7.4 to 0.69 mg/ml and in vitro biotinylated using recombinant BirA. The final material was monomeric on size exclusion and stored in PBS pH 7.4 at the final concentration of 0.35 mg/ml.
The binding of 2D ankyrin repeat protein MAM279 as well as of MAM279 conjugated to the chelator DOTAM (the conjugation was performed as described in Example 3) to different target proteins was analyzed by Surface Plasmon Resonance (SPR). Specifically, the proteins analyzed were (i) MAM279 (SEQ ID NO: 11), with a Glycine-Serine (GS) at its N-terminal end and an N-terminal His-tag (SEQ ID NO: 19); and (ii) MAM279 (SEQ ID NO: 11), with a Glycine-Serine (GS) at its N-terminal end and a tag (SEQ ID NO: 10) at its C-terminal end (resulting in GS-MAM279-tag (SEQ ID NO: 15)), conjugated to the chelator DOTAM as described in Example 3.
A surface plasmon resonance (SPR) assay was used to determine the binding kinetics of the two proteins (i.e. MAM279 with and without conjugation to chelator) to different targets: the Extra-Cellular Domain (ECD) of human DLL3, the ECD of cynomolgus monkey DLL3, the N-Terminal Domain (NTD) only of human DLL3, and the NTD dog DLL3. The data were generated using BioRad ProteOn instrument in SPR running buffer (PBS, pH 7.4 containing 0.005% Tween 20©). […] The chip was coated with biotinylated target to reach a signal intensity of 1516 RU (human ECD), 257 RU (human NTD), 1500 RU (cyno ECD) and 228 RU (dog NTD). All analytes (various concentrations in 3-fold dilutions ranging from 500-6.17 nM) were injected in succession for 240 s (100 μl/min) and dissociation was recorded for 10800 s (100 μl/min). Each injection was followed by a regeneration step with 16 mM H3PO4 for 18 s. […] The obtained SPR traces were used to determine on-rate and off-rate interaction parameters.

[1] = test system: NCI-H82 lung carcinoma cells; assay: Internalization in NCI-H82 cells; assay type: cell-based, human; settings: AF488 label with anti-AF488 quencher, 37° C.
Description: Studies were performed to determine whether a half-life extended DLL3-specific ankyrin repeat protein, as described herein, is internalized upon binding to cells expressing DLL3 on their surface. The specific ankyrin repeat protein tested was MAM279 (SEQ ID NO: 11) (with a Glycine-Serine (GS) at its N-terminal end). […] As a comparison, internalization was also tested for Rova antibody. Internalization was investigated on different cell types expressing DLL3 on their surface, namely SHP-77 lung carcinoma cells, NCI-H82 lung carcinoma cells, and hDLL3-expressing MC38 (MC38-hDLL3) colon carcinoma cells. In brief, DARPin and antibody were pre-incubated and labelled with fluorescently labelled detection antibodies (Fab-AF488) and added to 5×10^4 cells/well in a 96-well plate (100 nM DARPin, 10 nM antibody control) and incubated for 1h on ice. Cells were washed once with PBS and then incubated for different timepoints (0 min, 15 min, 30 min, 1 h and/or 4 h) at 37° C. in PBS with 2% FCS. […] Raw fcs files were exported and analyzed using FlowJo software. MFI values of live AF488-positive cells were exported from FlowJo and plotted using GraphPad Prism software. % internalization was determined by normalizing to non-binding control DARPin (for MAM279) or non-binding isotype control IgG (for Rova). […]

Row | Molecule | Kd (Human DLL3-ECD) | Koff Human DLL3-ECD (Human DLL3-ECD) | Kon Human DLL3-ECD (Human DLL3-ECD) | internalization [1]
1 | B1 | 0.174 nM | 1.45e-05 s⁻¹ | 83500 M⁻¹ s⁻¹ | similarly internalized
2 | B2 |  |  |  | internalization
3 | B3 |  | 1.64e-05 s⁻¹ | 67400 M⁻¹ s⁻¹ | 
